# Experimental data from article PMC8764033, “Single-molecule analysis of specificity and multivalency in binding of short linear substrate motifs to the APC/C” (Nature Communications, 2022).
# Several values for one entry are separate records, joined by “and”; a condition that tells them apart may be missing. Equal values may be shown once. Read-outs that look alike come from different tables or passages of the source.
# T1: APC/C^Cdh1 (Saccharomyces cerevisiae, UniProt P53068+P53197)
# T1 construct: APC/C was purified from yeast cells; made in house; host or cells: APC/C from S. cerevisiae W303 strain NHY13 (Cdc16-TAP, Apc1-GFP, cdh1 deleted); Cdh1 from Sf9 (baculovirus)
# T1 sequence (P53068 whole entry, looked up): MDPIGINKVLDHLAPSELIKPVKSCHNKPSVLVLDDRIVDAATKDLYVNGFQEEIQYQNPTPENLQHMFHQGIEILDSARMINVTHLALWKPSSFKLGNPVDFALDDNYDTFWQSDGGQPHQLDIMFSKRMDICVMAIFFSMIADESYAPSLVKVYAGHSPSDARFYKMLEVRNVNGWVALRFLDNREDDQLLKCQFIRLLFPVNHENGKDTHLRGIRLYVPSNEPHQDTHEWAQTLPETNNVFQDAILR
# T1 sequence (P53197 whole entry, looked up): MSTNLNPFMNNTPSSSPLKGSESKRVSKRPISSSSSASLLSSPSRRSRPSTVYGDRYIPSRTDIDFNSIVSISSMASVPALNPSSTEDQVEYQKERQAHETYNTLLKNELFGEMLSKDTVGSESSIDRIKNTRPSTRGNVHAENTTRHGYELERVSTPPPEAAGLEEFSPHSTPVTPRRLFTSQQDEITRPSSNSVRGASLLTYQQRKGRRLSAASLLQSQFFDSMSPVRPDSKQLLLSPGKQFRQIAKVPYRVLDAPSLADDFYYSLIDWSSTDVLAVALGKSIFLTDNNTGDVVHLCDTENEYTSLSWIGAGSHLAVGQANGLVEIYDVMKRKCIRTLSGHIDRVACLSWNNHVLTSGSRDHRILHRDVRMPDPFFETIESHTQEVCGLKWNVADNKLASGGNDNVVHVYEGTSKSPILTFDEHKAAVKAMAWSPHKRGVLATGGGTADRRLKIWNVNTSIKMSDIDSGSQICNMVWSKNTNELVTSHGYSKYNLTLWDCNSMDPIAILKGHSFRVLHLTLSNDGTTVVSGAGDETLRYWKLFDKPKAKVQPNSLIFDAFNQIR
# B1: Hsl1^Halo KEN & D: Hsl1 fragment (amino acids 667–872) with C-terminal HaloTag, JF549-labeled (protein)
# chain: QNSASKRSLYSLQSISKRSLNLNDLLVFDDPLPSKKPASENVNKSEPHSLESDSDFEILCDQILFGNALDRILEEEEDNEKERDTQRQRQNDTKSSADTFTISGVSTNKENEGPEYPTKIEKNQFNMSYKPSENMSGLSSFPIFEKENTLSSSYLEEQKPKRAALSDITNSFNKMNKQEGMRIEKKIQREQLQKKNDRPSPLKPIQ
# modifications: JF549 or JF646 dye covalently bound to the HaloTag; left off: HaloTag, C-terminal, kept | TAP, C-terminal, cleaved
# notes: Hsl1 fragment (amino acids 667–872) with C-terminal HaloTag, JF549-labeled
# Molecular target: T1, APC/C^Cdh1
# Type: binding
# Conditions: for mean dwell time: representative of two independent experiments, ± SE, ligand ≤1 nM, buffer C + BSA
# Protocol: Yeast strains were derivatives of W303 and are listed in Supplementary Table 2. For APC/C purification, we used a strain carrying Cdc16-TAP and lacking Cdh1 (DOM1126); in most experiments, the strain also carried Apc1-GFP (NHY13). Yeast were grown in YPD media to OD600 = 0.8, collected and flash-frozen. Cells were lysed by bead beating in lysis buffer A (50 mM HEPES pH 7.5, 150 mM KCl, 10% glycerol, 0.2% Triton X-100, 63 µM B-glycerophosphate, 48 µM sodium fluoride, 1 µg ml^−1 pepstatin A, 1 µg ml^−1 leupeptin, 1 µg ml^−1 aprotinin, 1 mM PMSF, 1 mM DTT, 0.5 mM EDTA) and APC/C was purified using magnetic IgG beads. The beads were washed using wash buffer A (20 mM HEPES pH 7.5, 150 mM KCl, 10% Glycerol, 0.05% Triton X-100). After incubation with purified Cdh1 or Cdc20, the APC/C was cleaved off the beads with TEV protease in wash buffer A with 0.05% Tween-20 (for single-molecule studies) or 0.05% Triton X-100 (for ensemble assays such as ubiquitylation) and used immediately.
# For all SMOR experiments, 24 × 50 mm high precision glass coverslips (Bioscience Tools) and drilled microscope slides were passivated with a combination of PEG and PEG-biotin (coverslips) or PEG only (slides) following a previously published protocol for SiMPull[31]. Reaction chambers (~20 µl) were created using double-sided tape and epoxy. Protein was immobilized on the surface with 0.2 mg ml^−1 NeutrAvidin in buffer C (20 mM HEPES pH 7.5, 150 mM KCl, 10% glycerol, 0.05% Tween-20, 1 mM DTT). Excess NeutrAvidin was washed away and incubated with either biotin-conjugated mouse monoclonal anti-Strep-Tag II antibody (LSBio, Cat. No. LS-C203632-100) or biotin-conjugated rabbit polyclonal anti-GFP antibody (Rockland, Cat. No. 600-406-215) diluted in buffer C + BSA (0.1 mg ml^−1; Molecular Biology Grade Bovine Serum Albumin). Activator WD40 and activated APC/C (typically 50 µl containing about 65 ng APC/C, of which only a small fraction is immobilized on the glass) were immobilized using anti-Strep-Tag II, while APC/C alone was immobilized with anti-GFP. SMOR results were similar when performed in the buffer (wash buffer B) used in polarization anisotropy.
# To capture dynamic protein–protein interactions, dye-labeled substrate diluted in buffer C + BSA was added to the chamber containing immobilized proteins. Interactions were imaged by TIRF microscopy as described below. For optimal signal-to-noise ratio, peptide concentration was no greater than 1 nM. Protein substrates included Hsl1 aa 667–872 and a C-terminal HaloTag followed by a TAP tag, and were produced by translation in rabbit reticulocyte lysates using TnT Quick Coupled Transcription/Translation System (Promega) (see Supplementary Table 5 for plasmids). Protein was purified with magnetic IgG beads and labeled on the bead with JF549 or JF646 dye so that unbound dye could be washed away. Purified dye-labeled protein was then cleaved from the beads using TEV protease. Before adding substrate to the reaction chamber, oxygen scavenging reagents were added (10 nM protocatechuate-3,4-dioxygenase, 2.5 mM protocatechuic acid, and 1 mM Trolox)[41]. A detailed description of the SMOR analysis pipeline is found in Supplementary Note 1.
# Microscopy was performed with a Nikon Eclipse TE2000-E with Perfect Focus with a 100 × 1.49na oil, Apo TIRF DIC N2, 0.13-0.2, WD0.12 objective. Movies were recorded using the Andor iXon DU-897E-CSO. For visualizing GFP-tagged protein, a 491 nm laser was used with an ET525/50 (Chroma) filter for emission. For visualizing JF549-labeled substrate, a 561 nm laser was used with an ET595/50 (Chroma) filter for emission. For visualizing all Cy5-labeled peptides and JF646-labeled substrates, a 640 nm laser was used with an ET685/70 filter (Chroma) for emission. Initially, for each substrate tested, we acquired movies at multiple intervals to deduce the optimal interval to decrease bleaching. µManager version 2.0 was used to control the microscope and record time-lapse movies.
molecule,measurement,setting,value
B1,Dwell Time,,300 s
same,"fold increase in affinity/dwell time, APC/C^Cdh1 vs Cdh1 alone",,6 fold
same,Dwell Time,"Supplementary Table 1, replicate 1 (movie listed first)",321.161 ± 14.186 s
same,Dwell Time,"Supplementary Table 1, replicate 2 (movie listed second)",268.262 ± 10.979 s
same,mean dwell time,,321 ± 14 s and 321 s
same,mean dwell time,listed as Hsl1,over 300 s
same,mean dwell time,listed as Hsl1 fragment,321 ± 14 s
